Values of other authors in paper PMC12384831.
Where “and” joins values, the source holds several entries; their conditions need not be identical. Equal entries are not always repeated.

Molecular target: VISTA (Homo sapiens) (UniProt Q9H7M9)
Chain of UniProt Q9H7M9 (Q9H7M9 33-194): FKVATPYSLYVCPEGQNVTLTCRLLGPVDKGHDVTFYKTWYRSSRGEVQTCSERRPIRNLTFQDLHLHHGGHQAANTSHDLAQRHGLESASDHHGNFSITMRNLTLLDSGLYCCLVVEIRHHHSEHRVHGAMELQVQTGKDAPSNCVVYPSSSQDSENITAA

IGSF11 (from UniProt Q5DX21)
Kd: 20 nM and 80 nM
